Measurements published in publication PMC3177862, “Characterization of the Biosynthesis, Processing and Kinetic Mechanism of Action of the Enzyme Deficient in Mucopolysaccharidosis IIIC” (PLoS ONE, 2011).

Columns and labels:
[1] = substrate: Cc1cc(=O)oc2cc(O[C@@H]3O[C@H](CO)[C@@H](O)[C@H](O)[C@H]3N)ccc12; assay: coupled fluorescence assay with beta-hexosaminidase (4-methylumbelliferone release), Michaelis-Menten fit; format: biochemical, Homo sapiens; conditions: acetyl-CoA fixed at 2 mM, CP buffer pH 5.5, 37 °C, liposomes with 20% PI, random sequential ternary-complex mechanism
Excerpt: (§1) coupled fluorescence assay with beta-hexosaminidase (4-methylumbelliferone release), Michaelis-Menten fit on N-acetyltransferase-His8Flag (heparin acetyl-CoA:alpha-glucosaminide N-acetyltransferase)

[2] = substrate: CC(=O)SCCNC(=O)CCNC(=O)[C@H](O)C(C)(C)COP(=O)(O)OP(=O)(O)OC[C@H]1O[C@@H](n2cnc3c(N)ncnc32)[C@H](O)[C@@H]1OP(=O)(O)O; assay: as above; format: biochemical, Homo sapiens; conditions: MU-GlcNH2 fixed at 1 mM, CP buffer pH 5.5, 37 °C, liposomes with 20% PI, random sequential ternary-complex mechanism
Excerpt: as §1

B1: N-acetyltransferase-His8Flag (heparin acetyl-CoA:alpha-glucosaminide N-acetyltransferase) (Homo sapiens) (protein)
chain: RDAQAAPPRDLDKKRHAELKMDQALLLIHNELLWTNLTVYWKSECCYHCLFQVLVNVPQSPKAGKPSAAAASVSTQHGSILQLNDTLEEKEVCRLEYRFGEFGNYSLLVKNIHNGVSEIACDLAVNEDPVDSNLPVSIAFLIGLAVIIVISFLRLLLSLDDFNNWISKAISSRETDRLINSELGSPSRTDPLDGDVQPATWRLSALPPRLRSVDTFRGIALILMVFVNYGGGKYWYFKHASWNGLTVADLVFPWFVFIMGSSIFLSMTSILQRGCSKFRLLGKIAWRSFLLICIGIIIVNPNYCLGPLSWDKVRIPGVLQRLGVTYFVVAVLELLFAKPVPEHCASERSCLSLRDITSSWPQWLLILVLEGLWLGLTFLLPVPGCPTGYLGPGGIGDFGKYPNCTGGAAGYIDRLLLGDDHLYQHPSSAVLYHTEVAYDPEGILGTINSIVMAFLGVQAGKILLYYKARTKDILIRFTAWCCILGLISVALTKVSENEGFIPVNKNLWSLSYVTTLSSFAFFILLVLYPVVDVKGLWTGTPFFYPGMNSILVYVGHEVFENYFPFQWKLKDNQSHKEHLTQNIVATALWVLIAYILYRKKIFWKI
notes: full length 635 aa with C-terminal His8-Flag tag kept; stably expressed in HeLa cells, DDM extract, anti-Flag purified; signal peptide cleaved; mix of 62 kDa precursor and processed alpha (Lys43-Asn144, N-terminus KKRHAE) and beta (Gly145-Ile635, N-terminus GVSEIA) chains; native about 80 kDa, monomer
Q: What does the source list for B1?
A: Km [1]: 450 ± 90 µM; Vmax [1]: 9 µmol/min/mg; kcat [1]: 10.4 ± 1.14 s⁻¹; Km [2]: 500 ± 20 µM; Vmax [2]: 6.33 µmol/min/mg; kcat [2]: 7.33 ± 0.1 s⁻¹
